Experimental data as given in the DeepSol protein solubility set.

assay: soluble on expression in E. coli; label from the status in PepcDB or PDB records

Soluble on expression in E. coli, soluble:
MFEKVKVSTCFHVTLLKDYIVFYVSNNLNFASRWPRRRRGQRLLPTALRAMMLNPTEALLAEVSKARTSGARITVEEFIPIYKKVEAACGRSTTLKEFQTLLSHFDREGNGQIMLMELKSMLQNGGEKMTNQEARALKPATGLDTIYRNLNFNHKFTLDHSAIGFLRTNQFFDVQMIPVSRFFTVQDPSNALLSYTQKGIDFFEKLGQFSKEKAAIEEEYSTKLRSLAKKYAKKSEEDDEILKSVSYTSSFNSFLQQLDQIATRHQTSAEHIRGGVVSYVASKTCQMRSSRKNAINDLKTINDKLEDQINEMCKSGKCYLKSFKDAENSYQKFYKADKNLEISRLELEKARALANARNEACELAKQDYSALVRKTNAEQKRYHVELLPVIFARLKAVDKECIADMRQVLQKIVSFDDSLADSTEECRKIMQREVGKIDAEGDAQLVLKSVEATIEQPAPFEIEDLGDPKNCDSRTNDSADGSGGKLLKSSPSKNRIIRNFLGILKEKEADEKPEASNNDQLMYTDKSKPAHVRLSCLRSKIRDMEKQLEQAIQGREGITRLQQAYYTNPQHGNPSACTEPLISYAKKIEKLKMDIHNLKEFYAMLEMSVEEGQERSFGGRDTPDTTRSMSGSSTNQSSSKTIEDVLSGEAGNSSSADDSSKNILRQLFTTPKRLISSPKTSKSSTPTPLRRRAEISSPKILRSSFSGAIRKSLSTPDSVKVETAVTVTALFEFAKSSAETMSIEQGEILLVLEHDHGDGWTRTKNCRKHNEESGFVPTSYLQFPQ
SASAGGEDCESPAPEADRPHQRPFLIGVSGGTASGKSTVCEKIMELLGQNEVEQRQRKVVILSQDRFYKVLTAEQKAKALKGQYNFDHPDAFDNDLMHRTLKNIVEGKTVEVPTYDFVTHSRLPETTVVYPADVVLFEGILVFYSQEIRDMFHLRLFVDTDSDVRLSRRDKEVCRCDHPTRSGQYGCHQPDRAAHPGHSEW
GPGSMTYCPITRKELERYLPNFDPLLDPQIGEWVLVTPERRFAILGPLLQFVQEHAIKPIYPFLDNSEPSSAPVTTFNFCKEDSPKTLGDPSKVFPTLSEVWRRYRRRRFHISGMDEDGIGEEEENDDTILYLNPRALLLTPCAPAVFGGSDFIEGLDREGERVVFVNWKTGETRTDSGVLKPAPIPAWAEDVAEKAAMEWESWKKCVIPPSSTRE
MNLCRECYGIIGEGVVAEKCEACCNAFDRVEEFAEEIVKKMSEYEFETFNVGSRVWGSLKALQEYLSLKGIEYEIKQRFNTKLARAIEEKTGSKRTLNPDITVLFDLETFTFELQIRPVFIYGRYLKRVRNISQTRWLCGYCNGEGCEVCNFTGKKYVSSVEELIAMPAVRLFKARDAKLHGAGREDVDARMLGTGRPFVLEVIEPRKRFVDLKELEEAINSQKWVAVRDLEYTDAEKVREVKTERHRKTYRAKVVFEEKVERERLIEALESLKGEIRQRTPMRVSHRRADRVRVRRLYDARLIHHTGRVAVVEFEAEAGLYIKELVSGDNGRTRPSLAEKVGVNARVDRLDVIAVSLEHHHHHH
MVSVIKPEMKMRYYMDGSVNGHEFTIEGEGTGRPYEGHQEMTLRVTMAKGGPMPFAFDLVSHVFCYGHRPFTKYPEEIPDYFKQAFPEGLSWERSLEFEDGGSASVSAHISLRGNTFYHKSKFTGVNFPADGPIMQNQSVDWEPSTEKITASDGVLKGDVTMYLKLEGGGNHKCQFKTTYKAAKKILKMPGSHYISHRLVRKTEGNITELVEDAVAHSLEHHHHHH

Soluble on expression in E. coli, not soluble:
MKFLTFVNRVDWWLNVKKLLMGNEAIAYGALEAGVSFATGYPGTPSTEVIETIARLKPEVFAEWAPNEKVALEEAAGVSYAGLRSLVTMKCVGLNVAADPLMSLAYSGVEGGLVILVADDPGPHTSQTEQDDRYYGKLALLPVLEPYDPQEAHDLIIYAYELSEKYKVPIIFRTTTRVNHTTADVEVGEFKELKREPKFKKDIERYVRASMEGNRKRHKWLNETLKRIEEEFNTLRFNWIEGEGRVGIIVEGAPYNYVKEVVPQIEEDFKILKLSTPHPLPRKLVVEFLRSVDVALVVEEGAPFLEEEIKVVAYEEGLNVPIYGKRTGHLPLEGELTPRLVRNAILKLLGKEREEVKLPKEVEEAKALAPKRPPVMCPGCPHRGTYRALLDALRELGYGKFDIPIHGDIGCYALSLLPPLEAIWTEFVMGASISLANGQSVAMGKKIVATIGDSTFFHNGIQPLIDAVYKDLDVLVIILDNRTTAMTGHQPHPGTGGSETGRKFREIDIESVVRGIGVKYVKTVDPYNLKETKEAIKEAMKVKGPAVIIAKRECVIPVIRRGEIGEIPVVVEDRCTGCKACILLTGCPALVYEPEKKKVRIDPLICTGCGVCNQLCPFDAI
DPSVFSLPDSKLPGDKEFVPWQQDLDDSVKPTQQARPTVIRWSEGGKEVFISGSFNNWSTKIPLIKSHNDFVAILDLPEGEHQYKFFVDGQWVHDPSEPVVTSQLGTINNLIHVKKSDFEVFDALKLDSMESSETSCRV
MGRSSRKDEILQAALACFSEHGVDATTIEMIRDRSGASIGSLYHHFGNKERIHGELYLAGIGQYAALLEAGFARARSAEETVRLLVTSYIDWVVANPDWARFILHSRGRVEAGELGERLRADNQAHFARIHAALAGYRAEGLFREMPDDCFASVVIGPAHDLARQWLAGRTRVALADCRELLAQVAWDSVRAA
MAKSTVRYVCSACGAVSLKYQGRCFECQSWGTLVETHLEEPDAKVRKKRPAGSMPEVQNLDDDAPSGFHRTLTGIGELDRVLGGGLMEASAILVGGEPGIGKSTLMLQLVPRLAGKKVLYVAGEESPNQIRERARRLSIKAPNLRLVSEVALERILDAIANEQPEMVIVDSIQTVYSSDYQSSAGTITQIRECAASLIRAAKEQNFILLIIGHITKEGSLAGPKALEHMVDTVVQFEGENYQRYRIIRSVKNRFGPTNEIGVFKMGEEGLTEVSNPSEFFISDRRTDVPGTAVLAGIEGSRALMVEVQALVSRTGYSMPQRISTGFDLKRIAIILAVLEKRLQFQTAGQDVFVKIAGGLKLVEPAADLAIAAAVASGLQDKPCNPTACCCGEIGLSGELRAISDGERRIREAVHLGFTSIVLPESNTRELKPSLKKLPIRIAGCRTLHEALEAMGV
MSLEDCVISEWGPWTQCALPCNPSGSRQRSADPIRQPADEGRACPDAVEKEPCSLNKNCYHYDYNVTDWSTCQLSEKAVCGNGIKTRMLDCVRSDGKSVDLKYCEELGLEKNWPMNTSCTVECPVNCQLSDWSSWSQCSQTCGLTGKMIRKRTVTQPFQGDGRPCPSLMEQSKPCPVKPCYRWQYGQWSPCQVQEAQCGEGTRTRNISCVVSDGSAEDFSKVVDEEFCANTELEGHHHHHH
VRRKVRRLTLAVSALVALFPAVAGCSDSGDNKPGATIPSTPANAEGRHGPFFPQCGGVSDQTVTELTRVTGLVNTAKNSVGCQWLAGGGILGPHFSFSWYRGSPIGRERKTEELSRASVEDINIDGHSGFIAIGNEPSLGDSLCEVGIQFSDDFIEWSVSFSQKPFPLPCDIAKELTRQSIANSK
MTKAVVIGGGLAGLATTALLLREGYEVHLVEQNEHLGGRAGTFELDGFRWDTGPSWYLMPDAMSHFFKLCGTSIDDHLDLVPLEPAYRVIDDHGEFIDVTSDIDAMAELFESREPGAGAKLRTYIDSATQVYNLAIDGFLYTNFTNFIPYLSPGMLRLLPKLLASLSTSLKVKVNTQFRDTKLRQILSYPAVFLSSDPSHTPALYHLMSHTDLVQGVSYPRGGFTAFIKALISLIDDAVLHLGTPVSAITTQGRNATGVQVGSEFIEADIVISCADQHHTETQLLPASLCAKPETSWKNKQPGLSTVLVLAGVKGEHTLLFPPTGTKISAKFSTAPPQNSRLQNPSRSPRPPQQIPMPHPKATRTSSSWSQYPPMSPLVTGPLTEKNLTWWAGSQLEHHHHHH
MGSDKIHHHHHHMSDFFIETTKADKVLPTNSRPKFFAFGIPSYTNLGDQAVSLAQRKYIENEFPEYQYIEILEDDNDEGIEAVKKIITSQDIVSFVGGGNMGSLYTNHEAARRKVFSTFVNNLTISFPQSIHFEDTPSGLKEQKLSQEAYGKNRHLFLIARDAQSYHRMQTTFDNQVLFTPDMVLYFKASHYDFKRSGALFVLRHDGEKVVGDSLIDSMKKMLDNNRPLKRTDTVLDTVKRITPINREKLFKEELELFAHQEIVITDRWHAMVFSVLTGTPCLLFGNSYGKGKHAYFDWLEHINWIAYTDEEDLDRIDQQIQRLIKTKEHAYDIRPDFKQLHDLIKLHSKK
MTTLTLAELATITGGELFGDPTALVSAVAPMDKAQLGHVTFLSNPKYSKHLGDCKATVIMVKTSERELCPSNALVVADPYVAFAKVAQALDSTPSPAHGIAPSAVIAEDAKLGHNVSIGANAVIESGVQLGDNVVIGAGCFIGKQARLGDNTKLWANVTIYHKVEIGSDCLIQSGTVIGADGFGYANERGEWIKIPQLGSVRIGDRVEIGACTTIDRGALDDTVIEDNVIIDNQLQIAHNVHIGYGSALAGGTVIAGSTRIGKYCIIGGASVINGHIEIADGVTITGMGMVMRSIEEKGMYSSGIPLQTNKEWRKTAARVHRIDDMHKRLKALEKLLEQSDTVQPDNSQAE
MLQVRMLLRIPTVLRSQELIDKAFSRASRIEEPYFPDKIERIRKEVQDRISTIESISRSFLDRLVKKFPSINNLHPFYSSLIDLMFDIDQYKISLSKIDRTSQMIEQISGEHIRRLKAAKTVEDANRIMRSYYGRFASLVHEIDQDLLFLGKCRDYMKKIPDIDVNLRTYIIAGMPNVGKSSLLAALTTKKPEIAPYPFTTKSVIIGIAEHGYERIQFIDTPGILDRDFDEMNQIEKNAVLALRHIKGTVIFLFDYSDQSLYDPEMQEHLYQQIREHINPDIIRVQTKMDISREKREKIAISVNSEGGLDPLKAIIFGRADDDVRRLEHHHHHH
MPGACGIYALATVSKPDPDMTQIITALAEISERYRALFVDLWGCVHNGVTAYPEAVAALQAYRAAGGIVVLVTNSPKPRAGVATQLSQFKVPQDAYDTIATSGDSARSAMFRGAVGQKVYFMGEWERDAGFFEPLKLLDSPVEITRVPLQEAEGIVCCGPFDPMADPAVNRPDFLYAKTKGMKLLCANPDIVVDRGEIREWCAGALARLYTEMGGESLYFGKPHPPIYDLARRRLLSLGADIADSEILAIGDGIQTDIAGGQGEGIDSLFISGGLAASETKTGHSPDPAALTAYLDRENRMPTYTIGQLR
MNEILKTEDEVVRWSVKKINDDTTLIEFELKRDLVPEDLKKINPPDAVKNKFANTFIVLSGRGPIWLYGFLIHFYHPTKGIGVFDPRLGGAVVVSSHSPNKKVGDVIKWEG
